From publication doi:10.1101/2021.04.07.438849 (bioRxiv, 2021)

Target: T1, SARS-CoV-2 Wuhan-Hu-1 S-HexaPro-D614G, displayed on HEK293T cells (SARS-CoV-2 Wuhan-Hu-1 with D614G …, UniProt A0A6N0C4S6, D614G)
T1 construct: also called WT (HexaPro-D614G); prefusion stabilized SARS-CoV-2 S D614G
Assay: flow cytometry on cells
Details: one partner purified

B1: A7V3 IgG (antibody, V domains shown)
VH: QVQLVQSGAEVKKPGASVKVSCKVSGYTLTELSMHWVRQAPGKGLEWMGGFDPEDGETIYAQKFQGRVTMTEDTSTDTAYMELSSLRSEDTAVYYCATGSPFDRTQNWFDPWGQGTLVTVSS
VL: QSVVTQPPSVSAAPGQKVTISCSGSSSNIGNNYVSWYQQLPGTAPKLLIYDNNKRPSGIPDRFSGSKSGTSATLGITGLQTGDEADYYCGTWDSSLSAVVFGGGTKLTVL
notes: also called mAb A7V3
binding result: binds
